Experimental data published in the supplement of paper PMC10567573.

B1: FAM46D (parent)
chain: FQEAMTHLQHKLICTRKPEEIRGG
B2: TTC32 (parent)
chain: YSAYIRRCACAASSDESPGSKCSP

Variants of: B1
Assay: protein stability index of a GFP-peptide fusion (GPS, HEK-293T) (PSI 1-6); higher = more stable
Conditions: c terminus: a fixed tail appended
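Note: lentivirally expressed fusions sorted by FACS into six bins by GFP to DsRed ratio, PSI derived from sequencing read proportions per bin multiplied by bin number.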

Protein stability index of substitutions, site by site:
G24: R 2.07 | Y 2.59 | F 2.3 | E 2.49 | D 2.96 | P 2.64 | C 2.52 | L 2.45 | T 2.96 | K 3.34 | I 1.91 | A 2.26 | H 2.26 | V 3.09 | W 1.68 | Q 2.91 | N 2.51 | S 2.9 | M 1.85
G23: Q 2.34 | D 3.08 | L 2.66 | K 3.19 | F 2.02 | R 2.45 | P 2.87 | N 3.01 | C 2.08 | E 2.16 | V 2.15 | Y 2.41 | I 2.6 | H 2.61 | T 2.14 | M 2.6 | W 2.48 | A 2.76 | S 2.71
R22: T 2.96 | Q 2.94 | H 3.14 | N 2.93 | W 1.41 | L 2.7 | V 3.04 | Y 1.91 | I 2.41 | P 2.51 | S 2.66 | G 2.85 | K 3.07 | M 2.39

Variants of: B2
Assay: as above
Conditions: c terminus: a fixed tail appended

Protein stability index of substitutions, site by site:
K21: W 2.23 | G 2.02 | D 1.92 | Q 1.98 | R 1.56 | F 2.22 | L 1.95 | A 2.23
Y1: Q 2.56 | M 2.45 | W 2.45 | T 2.52 | F 2.27 | K 2.75 | D 3.44
C22: E 2.96 | S 2.28 | K 2.35 | R 2.14
A9: G 1.82 | R 2.66
R7: A 2.17 | D 3.92 | H 1.9 | C 1.55 | W 2.53
Y4: W 3.57 | L 2.45 | P 2.45 | S 2.29 | E 3.34 | M 2.1
S2: C 2.06 | I 1.58 | E 2.7 | P 2.59 | D 2.6 | F 2.16 | W 1.91
P18: F 2.68 | N 2.33 | T 2.42 | Q 1.96 | I 1.95
S17: C 2.29 | I 2.66 | P 2.44 | K 1.94 | F 1.85
R6: Y 2.25 | L 2.07 | W 3.52 | H 1.82 | I 2.43
S14: R 2.03 | H 2.74 | D 2.38 | K 2.29 | Y 1.88
S20: H 2.8 | L 2.15 | D 2.7 | P 1.68 | I 1.85
A3: E 1.92 | L 2.18
S13: E 2.03 | M 1.55 | W 1.98
E16: F 2.68
A12: V 2.16 | E 2.55 | Y 1.75 | P 2.26
P24: C 4.33 | W 1.91 | R 2.2
C10: E 3.78 | V 2.07 | T 2.73 | R 2.78 | W 1.44
A11: E 1.87 | P 2.29 | L 1.74 | H 2.33 | Y 2.36
S23: P 2.02 | V 2.52 | Q 2.05 | H 1.6
G19: D 2.83 | W 4.05 | C 4.24 | H 2.24 | I 1.89 | K 2.29 | M 1.74 | T 1.91
I5: G 2.09 | Y 2.45 | R 2.27 | S 2.52 | N 3.13
C8: M 2.05 | Y 2.07 | N 3.41
D15: Y 2.38 | F 2.34 | P 1.99 | Q 2.02 | E 2.35 | W 1.6 | H 2.37 | G 1.72
